Source: the supplement of paper PMC9732359
± gives the uncertainty stated by the source.

Test: protein stability index of a GFP-peptide fusion (yeast GPS) (PSI 1-4); higher = more stable; sorted into four equal gates, so the index is relative within each strain
Method in brief: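 Plasmids in a pooled yeast library fused tiled 17-residue yeast protein peptides downstream of GFP and also expressed Cherry. Mid-log cultures grown without leucine were sorted into four equal gates by GFP/Cherry fluorescence ratio. Each gate's plasmids were PCR-amplified and Illumina-sequenced, and reads were matched to strains by barcodes. The protein stability index is derived by multiplying each gate's read frequency by its gate number and summing the results.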

Sequence | protein stability index (doa10∆) | protein stability index (pdr5∆) | protein stability index (san1∆) | protein stability index (ubr1∆)
ERHGYIRGIVKQIVHDS [RPL2A] | 1.6 ± 0.051 | 1.84 ± 0.072 | 1.92 ± 0.062 | 1.79 ± 0.05
TKIGAKRIHSVRTRGGN [RPS8A] | 2.84 ± 0.15 | 3.05 ± 0.11 | 2.93 ± 0.088 | 2.72 ± 0.12
FKAEKLQIVNQLPANMV [RPC17] | 3.36 ± 0.085 | 3.07 ± 0.068 | 3.03 ± 0.071 | 3.13 ± 0.056
NPSYPGMMSTTGTARLN [YJL039C/NUP192] | 2.97 ± 0.097 | 3.1 ± 0.053 | 3.13 ± 0.077 | 3.24 ± 0.076
VRKAITVLFFIGVRCYE [FAS1] | 1.47 ± 0.087 | 1.77 ± 0.075 | 2.49 ± 0.098 | 1.45 ± 0.064
FRFDSIQRETLLPTNNG [GRR1] | 2.59 ± 0.047 | 2.67 ± 0.053 | 2.69 ± 0.04 | 2.92 ± 0.033
TQTGQNTGPSTGGLFGA [YGL172W/NUP49] | 3.47 ± 0.11 | 3.34 ± 0.094 | 2.93 ± 0.14 | 3.52 ± 0.13
TKPGVYYVPYSKLMPVL [RPC82] | 1.54 ± 0.059 | 1.59 ± 0.049 | 1.91 ± 0.067 | 1.96 ± 0.09
PLDRLENVLAIGIAGAH [SKI6] | 1.26 ± 0.085 | 1.78 ± 0.092 | 1.54 ± 0.18 | 1.85 ± 0.12
CIKKIMENNEPAMAMED [SRB8] | 3.12 ± 0.072 | 3.15 ± 0.079 | 3.13 ± 0.059 | 3.08 ± 0.069
EVNISSLDAREANFDLI [RPC40] | 3.4 ± 0.11 | 3.37 ± 0.095 | 3.17 ± 0.095 | 3.22 ± 0.068
FEENDHPNRVLEHLHST [COR1] | 2.96 ± 0.049 | 2.95 ± 0.052 | 3 ± 0.055 | 3.07 ± 0.049
VEGISEVQARKSKSVSF [RPT5] | 3.41 ± 0.068 | 3.49 ± 0.11 | 3.41 ± 0.068 | 3.3 ± 0.069
KMLMNLHKEQWQSGLKM [RPN11] | 2.14 ± 0.048 | 2.05 ± 0.04 | 2.4 ± 0.039 | 2.13 ± 0.035
QLESIYFRILLPYERHM [SWI1] | 1.88 ± 0.055 | 1.83 ± 0.046 | 1.68 ± 0.067 | 1.9 ± 0.053
LTGTVVSTKMHRTIVIR [RPS11A] | 2.06 ± 0.063 | 2.25 ± 0.046 | 2.14 ± 0.08 | 1.87 ± 0.037
CAACHSLDRVAWRTLVG [CYT1] | 1.29 ± 0.052 | 1.32 ± 0.047 | 1.34 ± 0.1 | 1.26 ± 0.042
SPFGAYGEAPTSPGFGV [RPO21] | 2.87 ± 0.086 | 3.12 ± 0.052 | 2.98 ± 0.076 | 3.17 ± 0.034
ENRKKDESDSENDIEIK [YLR335W/NUP2] | 2.68 ± 0.1 | 2.23 ± 0.15 | 1.65 ± 0.12 | 2.73 ± 0.082
SLTAEAMTAAEHGLHAP [CYT1] | 2.82 ± 0.091 | 3.25 ± 0.073 | 2.94 ± 0.057 | 3.1 ± 0.045
APAFHTSGKVELPKKLL [SRB8] |  |  | 2.93 ± 0.2 | 2.84 ± 0.12
TFLPPLLLKLASPHASV [ECM29] | 1.63 ± 0.039 | 1.8 ± 0.04 | 1.66 ± 0.061 | 1.41 ± 0.027
KELEPWDLQLQEKESQI [SMC4] | 3.16 ± 0.12 | 3.22 ± 0.13 | 3.21 ± 0.12 | 3.36 ± 0.12
QEKESQIQLAESELSLL [SMC4] | 2.81 ± 0.046 | 2.95 ± 0.051 | 1.89 ± 0.076 | 2.71 ± 0.039

Sequence | protein stability index (doa10∆) | protein stability index (pdr5∆) | protein stability index (san1∆) | protein stability index (ubr1∆)
RAGVSQVLNRYTYSSTL [RPB2] | 2.96 ± 0.044 | 2.9 ± 0.041 | 2.9 ± 0.038 | 2.76 ± 0.036
QIQFTPLIKKIKYEPRF [SMC3] | 2.62 ± 0.061 | 2.52 ± 0.045 | 2.83 ± 0.09 | 2.43 ± 0.062
MDRTSLRKQYSAIDEEI [SMC3] | 2.28 ± 0.21 |  |  | 2.63 ± 0.25
SEDSAVFKATSSTDEES [FAS1] | 3.03 ± 0.1 | 3.21 ± 0.11 | 2.93 ± 0.073 | 2.98 ± 0.067
GLVDENKVEAFKSLYTF [YAR002W/NUP60] | 3.01 ± 0.089 | 2.65 ± 0.08 | 3.39 ± 0.054 | 2.83 ± 0.043
CILYDADESKMAKLNEC [RET1] | 2.28 ± 0.062 | 1.99 ± 0.06 | 2.32 ± 0.1 | 1.76 ± 0.055
LSSIAERVRNFAVIYLC [DIB1] | 1.51 ± 0.083 | 2.04 ± 0.11 | 1.71 ± 0.11 | 1.88 ± 0.12
PIKNRTSKSFSKLLYDD [SIN4] | 2.63 ± 0.07 | 2.73 ± 0.045 | 2.22 ± 0.086 | 2.64 ± 0.048
GLWGFSTATRNVTMIDD [COR1] | 3.18 ± 0.083 | 3.1 ± 0.08 | 3.02 ± 0.064 | 2.85 ± 0.066
LNVYHYFGENSSISWKN [YJL039C/NUP192] | 1.79 ± 0.08 | 2.76 ± 0.082 | 2.65 ± 0.083 | 3.03 ± 0.1
ETRAELSQLCAVPLQIV [RPO21] | 1.96 ± 0.087 | 2.32 ± 0.14 | 2.24 ± 0.21 | 2.71 ± 0.19
EQWITIESQMRDLILTE [PRP8] | 2.78 ± 0.088 | 3.1 ± 0.092 | 3.08 ± 0.073 | 3.14 ± 0.077
DDFMHSETREKELESID [RPB4] |  |  | 2.74 ± 0.12 | 3.2 ± 0.19
QVIVDIFSVHGNTVVDG [YCG1] | 2.08 ± 0.11 | 2.12 ± 0.068 | 1.4 ± 0.2 | 2.34 ± 0.035
EEGEYKNAANTEGHKGH [ISW2] | 3.31 ± 0.062 | 3.16 ± 0.069 | 3.31 ± 0.064 | 3.21 ± 0.053
KVNPNIMNMIENVEKKE [SMC2] | 2.46 ± 0.13 | 2.71 ± 0.12 | 2.36 ± 0.13 | 2.5 ± 0.064
NGLIISWSNGKITSPIR [RRP42] | 3.12 ± 0.19 | 2.98 ± 0.14 | 3.2 ± 0.082 | 3.39 ± 0.12
TTEMLDKLMVTSIRSTP [MED6] | 2.27 ± 0.14 | 2.45 ± 0.12 | 2.81 ± 0.27 | 2.53 ± 0.089
RCYQPFELFDNKTAHLS [SNU114] | 2.27 ± 0.1 | 2.71 ± 0.08 | 2.53 ± 0.061 | 2.24 ± 0.041
QIQKNVDLLQFPWLNAI [POP3] | 2.29 ± 0.07 | 2.09 ± 0.073 | 3.32 ± 0.11 | 2.35 ± 0.06
LAKKWFLQHPDEEYPVK [PRP8] | 3.23 ± 0.14 | 3.15 ± 0.15 | 3.26 ± 0.094 | 2.89 ± 0.16
EGIEIYDRKKLPRKEVD [RPC11] | 3.14 ± 0.14 | 2.98 ± 0.097 | 1.91 ± 0.14 | 3.3 ± 0.17
QNAAANAEAKGLDATKL [RPL17A] | 2.8 ± 0.28 | 3.39 ± 0.24 | 1.93 ± 0.25 | 
TIKISTNDDSIKNLTVQ [RGR1] | 2.88 ± 0.13 | 3.05 ± 0.1 | 2.9 ± 0.074 | 2.96 ± 0.14

Sequence | protein stability index (doa10∆) | protein stability index (pdr5∆) | protein stability index (san1∆) | protein stability index (ubr1∆)
LEAPVKSIENPTQTKGN [YLR335W/NUP2] | 3.04 ± 0.077 | 3.17 ± 0.055 | 3.15 ± 0.051 | 2.95 ± 0.058
LLTLTNAANVPVENIWA [RPP1A] | 2.12 ± 0.081 | 2.56 ± 0.13 | 2.48 ± 0.11 | 2.55 ± 0.094
ADNTKDKEKEENNDDAL [MED4] | 2.86 ± 0.14 | 3.04 ± 0.11 | 2.98 ± 0.078 | 3.16 ± 0.082
PDISRAVINIRDDGKRE [RPO31] | 2.78 ± 0.083 | 2.29 ± 0.07 | 2.74 ± 0.11 | 2.77 ± 0.063
EVSALVRSLPKEEQPKQ [PRP8] | 1.23 ± 0.075 | 1.38 ± 0.082 | 1.26 ± 0.12 | 1.08 ± 0.051
KRGVKGVEYRLRLRISR [RPL31A] | 1.64 ± 0.12 | 1.36 ± 0.12 |  | 1.78 ± 0.19
KREEKAMTIYWDDHTKK [CDC53] | 2.5 ± 0.076 | 2.2 ± 0.068 | 3.45 ± 0.072 | 2.25 ± 0.051
FISYHDKYLCMLKTCVF [NUT1] | 2.67 ± 0.057 | 2.95 ± 0.064 | 3.03 ± 0.061 | 2.13 ± 0.042
PSTNKKLSISNAASQQP [GAL11] | 2.48 ± 0.084 | 2.8 ± 0.066 | 2.56 ± 0.072 | 2.74 ± 0.075
YITARIMAKRPFDKKSN [FAS1] | 2.74 ± 0.094 | 2.79 ± 0.078 | 1.96 ± 0.12 | 2.86 ± 0.081
YYVPYSKLMPVLKSSVY [RPC82] | 1.53 ± 0.064 | 1.85 ± 0.079 | 1.57 ± 0.098 | 1.74 ± 0.079
PTATPSPFRPLEKTSRI [YMR153W/NUP53] | 2.89 ± 0.1 | 2.51 ± 0.058 | 2.57 ± 0.11 | 2.81 ± 0.054
EGNQIIVFVHSRKETSR [BRR2] | 2.01 ± 0.055 | 2.28 ± 0.054 | 1.8 ± 0.072 | 2.48 ± 0.05
ENLADLDYQIGNSESKV [LIN1] | 3.23 ± 0.099 | 3.42 ± 0.11 | 3.06 ± 0.12 | 3.42 ± 0.1
AFHTAVLRLNAIPLLKV [NUT1] | 1.94 ± 0.059 | 2.43 ± 0.053 | 2.35 ± 0.07 | 1.99 ± 0.05
NANAGLFNKPPSTNAQN [YOR098C/NUP1] | 3.1 ± 0.046 | 3.17 ± 0.046 | 3.06 ± 0.038 | 3.16 ± 0.034
AAGANVDNVWADVYAKA [RPP1B] | 3.2 ± 0.096 | 3.16 ± 0.14 | 2.77 ± 0.14 | 2.96 ± 0.12
VYDFYGRHVATCSSDQH [YGL100W/SEH1] | 2.75 ± 0.068 | 2.32 ± 0.06 | 2.43 ± 0.072 | 2.2 ± 0.049
LVESVDRFKPNLDIAKD [MED4] | 3.37 ± 0.29 | 3.33 ± 0.17 | 3.15 ± 0.072 | 2.9 ± 0.15
ITHYAVRGGNIEIMGIL [RRI1] | 2.85 ± 0.1 | 2.54 ± 0.097 | 2.79 ± 0.095 | 2.25 ± 0.13
VQHDQILVMETSEEQTK [SWP82] | 2.99 ± 0.092 | 2.91 ± 0.11 | 2.94 ± 0.047 | 2.85 ± 0.076
AETDYVDPKRLAMVIIK [DSN1] | 3.13 ± 0.066 | 3.35 ± 0.074 | 3.03 ± 0.056 | 3.53 ± 0.06
QVLVTTNQDGLKFVKVR [RPB2] | 1.41 ± 0.075 | 1.78 ± 0.1 | 1.69 ± 0.14 | 1.33 ± 0.11
